This is an account of results in patent US20250066503A1, “CELL INJURY INDUCING THERAPEUTIC DRUG FOR USE IN CANCER THERAPY” (CHUGAI SEIYAKU KABUSHIKI KAISHA, priority 2016, published 2025).

The test deals with T1, soluble human CD3 epsilon chain (human, UniProt P07766 23-126).
T1 construct: also called CD3ε
As to the kind of experiment: SPR.

Substitutions are numbered along the chain they refer to. Values joined by “and” are separate entries in the source; they are usually repeats but may differ in a detail not shown here. Identical values can stand only once.

T1 sequence (P07766 23-126 limits assumed): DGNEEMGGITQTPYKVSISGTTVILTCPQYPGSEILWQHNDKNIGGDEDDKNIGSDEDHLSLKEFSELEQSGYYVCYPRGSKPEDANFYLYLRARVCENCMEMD

B1: TR01H083-E22Hh/none-Hi-Kn010G3/L0011-k0 (antibody, V domains shown)
VH: QVQLVESGGGLVQPGRSLRLSCAASGFTFSNAWMHWVRQAPGKGLEWVAQIKDKSNNYATYYAESVKGRFTISRADSKNSIYLQMNSLKTEDTAVYYCRYVHYAAGYGVDIWGQGTTVTVSS
VL: DIVMTQSPLSLPVTPGEPASISCRSSQPLVHSNRNTYLHWYQQKPGQAPRLLIYKVSNRFSGVPDRFSGSGSGTDFTLKISRVEAEDVGVYYCGQGTQVPYTFGQGTKLEIKR
notes: one-arm
In the case of B1, the equilibrium dissociation constant (Kd) (commonly the constant that tells how readily two partners part at equilibrium) stood at 6.7 nM. In other words, the single-digit nanomolar range.

B2: hCE115HA-E22Hh/none-Hi-Kn010G3/L0000-k0 (antibody, human IgG1, kappa, L234A L235A, N297A, V domains shown)
VH: B1 VH with L11V, D53A, A75D, I81L, A104G, G106Y, I111A
VL: B1 VL with P28S
notes: one-arm; also called hCE115HA-E22Hh//-Hi-Kn010G3/L0000-k0
Regarding B2, the Kd was 143 nM and 124 nM.

B3: TR01H105-E22Hh/none-Hi-Kn010G3/L0011-k0 (antibody, V domains shown)
VH: B1 VH with N56Q, Y62L, A75D, I81L, I111A
VL: B1 VL
notes: one-arm
The molecule B3 registered a Kd of 69.5 nM.

B4: TR01H112-E2702GsKsc/none-Hi-E2704sE/L0011-k0 (antibody, V domains shown)
VH: B1 VH with L11V, R16G, N56Q, T60Q
VL: B1 VL
notes: one-arm
B4 registered a Kd of 5.12 nM.

B5: TR01H106-E22Hh/none-Hi-Kn010G3/L0011-k0 (antibody, V domains shown)
VH: B1 VH with N56Q, Y62P, A75D, I81L, I111A
VL: B1 VL
notes: one-arm
Molecule B5 returned a Kd of 100 nM. This Kd is about 20-fold higher than that of the molecule before.

B6: TR01H103-E22Hh/none-Hi-Kn010G3/L0011-k0 (antibody, V domains shown)
VH: B1 VH with N56Q, Y62G, A75D, I81L, I111A
VL: B1 VL
notes: one-arm
Molecule B6 showed a Kd of 77.2 nM.

B7: TR01H099-E2702GsKsc/none-Hi-E2704sE/L0011-k0 (antibody, V domains shown)
VH: B1 VH with N56Q, T60Q, A75D, I81L, I111A
VL: B1 VL
notes: one-arm
In turn, B7 displayed a Kd of 14.6 nM.

B8: TR01H100-E22Hh/none-Hi-Kn010G3/L0011-k0 (antibody, V domains shown)
VH: B1 VH with N56Q, T60S, A75D, I81L, I111A
VL: B1 VL
notes: one-arm
In turn, B8 registered a Kd of 62.5 nM. This Kd is about 4.3-fold higher than that of the molecule before.

B9: TR01H107-E22Hh/none-Hi-Kn010G3/L0011-k0 (antibody, V domains shown)
VH: B1 VH with N56Q, Y62Q, A75D, I81L, I111A
VL: B1 VL
notes: one-arm
B9 gave a Kd of 69.1 nM. This Kd and that of the molecule before are within 1.5-fold of each other.

B10: TR01H110-E2702GsKsc/none-Hi-E2704sE/L0011-k0 (antibody, V domains shown)
VH: B1 VH with L11V, R19K, N56Q, A75D, I81L, I111A
VL: B1 VL
notes: one-arm
In turn, B10 returned an equilibrium dissociation constant (Kd) of 12.6 nM.

B11: TR01H084-E22Hh/none-Hi-Kn010G3/L0011-k0 (antibody, V domains shown)
VH: B1 VH with L11V, R16G, N56Q
VL: B1 VL
notes: one-arm
Turning to B11, the affinity, expressed as Kd, was 19.8 nM.

B12: TR01H108-E22Hh/none-Hi-Kn010G3/L0011-k0 (antibody, V domains shown)
VH: B1 VH with N56Q, Y62T, A75D, I81L, I111A
VL: B1 VL
notes: one-arm
As to B12, the Kd came out at 69.8 nM.

B13: TR01H101-E22Hh/none-Hi-Kn010G3/L0011-k0 (antibody, V domains shown)
VH: B1 VH with N56Q, T60V, A75D, I81L, I111A
VL: B1 VL
notes: one-arm
Molecule B13 had a Kd of 78.7 nM.

B14: TR01H084-E22Hh/none-Hi-Kn010G3/L0000-k0 (antibody, V domains shown)
VH: B1 VH with L11V, R16G, N56Q
VL: B1 VL with P28S
notes: one-arm
In turn, B14 showed a Kd of 21.3 nM. This Kd lies about 3.7-fold lower than the previous one.

B15: TR01H093-E22Hh/none-Hi-Kn010G3/L0011-k0 (antibody, V domains shown)
VH: B1 VH with N56Q, K67Q, A75D, I81L, I111A
VL: B1 VL
notes: one-arm
In the case of B15, the affinity, expressed as Kd, was 68 nM.

B16: TR01H109-E22Hh/none-Hi-Kn010G3/L0011-k0 (antibody, V domains shown)
VH: B1 VH with N56Q, Y62V, A75D, I81L, I111A
VL: B1 VL
notes: one-arm
B16 came in with a Kd of 70.6 nM.

B17: TR01H096-E22Hh/none-Hi-Kn010G3/L0011-k0 (antibody, V domains shown)
VH: B1 VH with N56Q, T60G, A75D, I81L, I111A
VL: B1 VL
notes: one-arm
B17 showed a Kd of 74.7 nM.

B18: hCE115HAa-E22Hh/none-Hi-Kn010G3/L0000-k0 (antibody, V domains shown)
VH: B1 VH with L11V, R16G, D53A, A75D, I81L, A104G, G106Y, I111A
VL: B1 VL with P28S
notes: one-arm
In turn, B18 showed a Kd of 108 nM.

B19: TR01H095-E22Hh/none-Hi-Kn010G3/L0011-k0 (antibody, V domains shown)
VH: B1 VH with N56Q, T60F, A75D, I81L, I111A
VL: B1 VL
notes: one-arm
As for B19, binding was characterised by a dissociation constant (Kd) of 90.9 nM. This Kd and that of the molecule before are within 1.5-fold of each other.

B20: TR01H099-E22Hh/none-Hi-Kn010G3/L0011-k0 (antibody, V domains shown)
VH: B1 VH with N56Q, T60Q, A75D, I81L, I111A
VL: B1 VL
notes: one-arm
As for B20, the Kd is 77.4 nM.

B21: TR01H083-E22Hh/none-Hi-Kn010G3/L0212-k0 (antibody, V domains shown)
VH: B1 VH
VL: B1 VL with S25P, P28S, L29P, G94Y
notes: one-arm
For the molecule B21, the Kd is 0.0586 nM.

B22: TR01H083-E22Hh/none-Hi-Kn010G3/L0222-k0 (antibody, V domains shown)
VH: B1 VH
VL: B1 VL with P28S, L29P, L38I, H39Q, G94Y
notes: one-arm
In turn, B22 came in with a Kd of 9.42 nM.

B23: TR01H111-E2702GsKsc/none-Hi-E2704sE/L0011-k0 (antibody, V domains shown)
VH: B1 VH with L11V, R16G, R19K, N56Q
VL: B1 VL
notes: one-arm
As for B23, binding was characterised by a dissociation constant (Kd) of 4.91 nM.

B24: TR01H097-E22Hh/none-Hi-Kn010G3/L0011-k0 (antibody, V domains shown)
VH: B1 VH with N56Q, T60L, A75D, I81L, I111A
VL: B1 VL
notes: one-arm
As to B24, the dissociation constant Kd is 87.6 nM.

B25: TR01H092-E22Hh/none-Hi-Kn010G3/L0011-k0 (antibody, V domains shown)
VH: B1 VH with N56Q, K67A, A75D, I81L, I111A
VL: B1 VL
notes: one-arm
Molecule B25 showed a Kd of 72.1 nM.

B26: TR01H084-E22Hh/none-Hi-Kn010G3/L0201-k0 (antibody, V domains shown)
VH: B1 VH with L11V, R16G, N56Q
VL: B1 VL with L29P
notes: one-arm
On to B26, for which the Kd is 16.5 nM.

B27: CE115HA251-E22Hh//-Hi-Kn010G3/L0000-k0 (antibody, human IgG1, kappa, L234A L235A, N297A, V domains shown)
VH: B1 VH with L11V, D53A, A75D, I81L, A104Y, A105Y, G106Y, I111A
VL: B1 VL with P28S
notes: one-arm
In turn, B27 yielded a Kd of 22.3 nM.

B28: hCE115HA-E22stHh/none-Hi-stKn010G3/L0000-k0 (antibody, V domains shown)
VH: B1 VH with L11V, D53A, A75D, I81L, A104G, G106Y, I111A
VL: B1 VL with P28S
notes: one-arm
Molecule B28 displayed a Kd of 51.7 nM. Against the preceding molecule, the Kd is about 2.3-fold higher.

B29: TR01H100-E2702GsKsc/none-Hi-E2704sE/L0011-k0 (antibody, V domains shown)
VH: B1 VH with N56Q, T60S, A75D, I81L, I111A
VL: B1 VL
notes: one-arm
Molecule B29 displayed a Kd of 11.1 nM.

B30: TR01H102-E22Hh/none-Hi-Kn010G3/L0011-k0 (antibody, V domains shown)
VH: B1 VH with N56Q, Y62F, A75D, I81L, I111A
VL: B1 VL
notes: one-arm
Turning to B30, binding was characterised by a dissociation constant (Kd) of 85.4 nM.

B31: TR01H114-E2702GsKsc/none-Hi-E2704sE/L0011-k0 (antibody, V domains shown)
VH: B1 VH with L11V, R16G, N56Q, T60S
VL: B1 VL
notes: one-arm
In turn, B31 registered a Kd of 4.22 nM.

B32: TR01H090-E22Hh/none-Hi-Kn010G3/L0011-k0 (antibody, V domains shown)
VH: B1 VH with R16G, N56Q, A75D, I81L, I111A
VL: B1 VL
notes: one-arm
Turning to B32, binding was put at a Kd of 69.5 nM.

B33: TR01H015-E22Hh/none-Hi-Kn010G3/L0000-k0 (antibody, human IgG1, kappa, L234A L235A, N297A)
heavy: QVQLVESGGGLVQPGRSLRLSCAASGFTFSNAWMHWVRQAPGKGLEWVAQIKGKSNNYATYYAESVKGRFTISRADSKNSIYLQMNSLKTEDTAVYYCRYVHYSASYGVDIWGQGTTVTVSSASTKGPSVFPLAPSSKSTSGGTAALGCLVKDYFPEPVTVSWNSGALTSGVHTFPAVLQSSGLYSLSSVVTVPSSSLGTQTYICNVNHKPSNTKVDKKVEPKSCDKTHTCPPCPAPEAAGGPSVFLFPPKPKDTLMISRTPEVTCVVVDVSHEDPEVKFNWYVDGVEVHNAKTKPREEQYASTYRVVSVLTVLHQDWLNGKEYKCKVSNKALPAPIEKTISKAKGQPREPQVYTLPPSRCELTKNQVSLSCAVKGFYPSDIAVEWESNGQPENNYKTTPPVLDSDGSFFLVSKLTVDKSRWQQGNVFSCSVMHEALHNHYTQKSLSLSPDYKDDDDK
light: DIVMTQSPLSLPVTPGEPASISCRSSQSLVHSNRNTYLHWYQQKPGQAPRLLIYKVSNRFSGVPDRFSGSGSGTDFTLKISRVEAEDVGVYYCGQGTQVPYTFGQGTKLEIKRTVAAPSVFIFPPSDEQLKSGTASVVCLLNNFYPREAKVQWKVDNALQSGNSQESVTEQDSKDSTYSLSSTLTLSKADYEKHKVYACEVTHQGLSSPVTKSFNRGEC
notes: one-arm
B33: binding was put at a Kd of 61.3 nM. The Kd values of the last two molecules are within 1.5-fold of each other.

B34: hCE115HA-G1dh//-Hi-Kn010G3/L0000-k0 (antibody, V domains shown)
VH: B1 VH with L11V, D53A, A75D, I81L, A104G, G106Y, I111A
VL: B1 VL with P28S
notes: one-arm
The molecule B34 gave a Kd of 65 nM.

B35: TR01H083-E22Hh/none-Hi-Kn010G3/L0201-k0 (antibody, V domains shown)
VH: B1 VH
VL: B1 VL with L29P
notes: one-arm
In turn, B35 showed a Kd of 4.42 nM.

B36: TR01H098-E22Hh/none-Hi-Kn010G3/L0011-k0 (antibody, V domains shown)
VH: B1 VH with N56Q, T60P, A75D, I81L, I111A
VL: B1 VL
notes: one-arm
Take B36: the Kd turned out to be 91.4 nM.

B37: TR01H091-E22Hh/none-Hi-Kn010G3/L0011-k0 (antibody, V domains shown)
VH: B1 VH with R19K, N56Q, A75D, I81L, I111A
VL: B1 VL
notes: one-arm
Regarding B37, the Kd stood at 66.7 nM.

B38: TR01H091-E2702GsKsc/none-Hi-E2704sE/L0011-k0 (antibody, V domains shown)
VH: B1 VH with R19K, N56Q, A75D, I81L, I111A
VL: B1 VL
notes: one-arm
Regarding B38, the Kd was 13.9 nM.

B39: TR01H094-E22Hh/none-Hi-Kn010G3/L0011-k0 (antibody, V domains shown)
VH: B1 VH with N56Q, K67S, A75D, I81L, I111A
VL: B1 VL
notes: one-arm
The molecule B39 returned a Kd of 70 nM.

B40: TR01H104-E22Hh/none-Hi-Kn010G3/L0011-k0 (antibody, V domains shown)
VH: B1 VH with N56Q, Y62I, A75D, I81L, I111A
VL: B1 VL
notes: one-arm
In the case of B40, the Kd was determined as 82.6 nM.
